Results: patent US20200109196A1 (MOGAM INSTITUTE FOR BIOMEDICAL RESEARCH, published 2020)
Numbering of substitutions follows the chain as printed. One block for each binder: values may come before it.

What was measured:
[1] = target: T1, recombinant human CEACAM-1/CD66a protein (R&D systems; Cat. No. 2244-CM) (human, UniProt P13688 35-428); test: Octet QKe biolayer interferometry, anti-His (HIS1K) biosensors, antibody 6.25-400 nM
T1 construct: Bought protein; captured on anti-His (His1K) biosensors in the Octet assay, so it carries a His tag; also called HCCM1; recombinant CEACAM-1/CD66a protein
T1 sequence (looked up): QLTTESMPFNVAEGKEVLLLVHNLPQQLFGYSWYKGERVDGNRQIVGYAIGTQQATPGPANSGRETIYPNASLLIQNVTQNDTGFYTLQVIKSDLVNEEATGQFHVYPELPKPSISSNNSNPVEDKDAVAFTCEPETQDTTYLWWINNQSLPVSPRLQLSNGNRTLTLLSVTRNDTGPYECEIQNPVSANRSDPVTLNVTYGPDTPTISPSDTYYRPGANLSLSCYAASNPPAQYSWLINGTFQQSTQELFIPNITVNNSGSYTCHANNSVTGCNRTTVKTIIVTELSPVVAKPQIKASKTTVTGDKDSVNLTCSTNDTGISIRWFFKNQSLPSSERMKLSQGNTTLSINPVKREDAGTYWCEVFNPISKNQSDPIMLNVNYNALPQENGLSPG
Experimental: The last well in each row was with a sample at the antibody concentration of 0 nM. Recombinant human CEACAM1 protein (R&D Systems; Cat. No. 2244-CM) was diluted to obtain a concentration of […], and dispensed into each well of another column at 200 μl/well.
As for the washing buffer, neutralization buffer and baseline buffer, Reagent/Kinetics buffer (10×) (Fortebio; Cat. No. 18-1092) were 1:10 diluted and dispensed into each well of a column in a row at 200 μl/well, and the regeneration buffer was dispensed into each well at 200 μl/well. Greiner 96-well plate was separately prepared, Reagent/Kinetics buffer (1×) was dispensed into each well of the number of biosensors to be used in a row at 200 μl/well, and Biosensors/Anti-His (His1K) (Fortebio; Cat. No. 18-5120) cassette was installed.

HVISTA = target: T2, HVISTA; test: ELISA on coated antigen (0.25 µg/ml), HRP anti-human IgG Fc, OD450
T2 construct: unrelated control antigen; also called human B7-H5/Gi24/VISTA protein (Sino Biological; Cat. No. 13482-H08H); not shown: the vendor's polyhistidine tag
From the text: (§1) All of the recombinant human CEACAM-1/CD66a protein (R&D systems; Cat No. 2244-CM, HCCM1), recombinant human CEACAM-5/CD66e protein (R&D systems; Cat. No. 4128-CM, HCCM5), recombinant human CEACAM-6/CD66c protein (R&D systems; Cat. No. 3934-CM, HCCM6), recombinant human CEACAM-3/CD66d protein (Sino Biological; Cat. No. 11933-H08H, HCCM3), human B7-H5/Gi24/VISTA protein (Sino Biological; Cat. No. 13482-H08H, HVISTA), recombinant human CEACAM-1/CD66a protein Bulk (R&D systems; Cat. No. 2244-CM, HCCM1 (bulk)), recombinant human CEACAM1-N domain-Kappa protein (Mogam, in-house production, HCCM1-N domain-kappa), and BSA protein (2.5 μg each) were dissolved in 10 ml of PBS, respectively, and dispensed into a 96-well plate at 100 μl/well, which was incubated at 4° C. overnight. Thereafter, each well was treated with 300 μl of 1% (v/v) bovine serum albumin, and incubated at 37° C. for 1 hour.
(§2) The diluted antibodies were dispensed into each well coated with each protein at 100 μl/well, and incubated at 37° C. for 1 hour. Then, each well was washed 3 times with a washing buffer prepared by diluting 10 μl of Tween 20 (Sigma-Aldrich; Cat. No. P9146) in 990 μl of PBS. Thereafter, 2 μl of HRP-conjugated human anti-IgG-Fc antibody (anti-human IgG Fc, Sigma Cat. No. A0170) was diluted in 10 ml of PBS, added to the wells at 100 μl/well, and incubated for 1 hour.
(§3) After completion of the reaction, the wells were washed three times with the washing buffer, and 100 μl of TMB solution was added to each well to induce color development. Then, 100 μl of 2 M H₂SO₄ was added to each well to stop the reaction, and the absorbance was measured at a wavelength of 450 nm.

BSA = target: T3, BSA (bovine, UniProt P02769); test: as above
T3 construct: blank antigen; also called BSA protein; bovine serum albumin
From the text: as §1, §2, §3

mCCM1 = target: T4, mCCM1; test: ELISA on coated antigen (0.25 µg/ml), HRP anti-human IgG Fab, OD450
T4 construct: also called mouse CCM1; mouse CEACAM1/CD66a protein (Sino Biological); not shown: the vendor's polyhistidine tag
T4 chain: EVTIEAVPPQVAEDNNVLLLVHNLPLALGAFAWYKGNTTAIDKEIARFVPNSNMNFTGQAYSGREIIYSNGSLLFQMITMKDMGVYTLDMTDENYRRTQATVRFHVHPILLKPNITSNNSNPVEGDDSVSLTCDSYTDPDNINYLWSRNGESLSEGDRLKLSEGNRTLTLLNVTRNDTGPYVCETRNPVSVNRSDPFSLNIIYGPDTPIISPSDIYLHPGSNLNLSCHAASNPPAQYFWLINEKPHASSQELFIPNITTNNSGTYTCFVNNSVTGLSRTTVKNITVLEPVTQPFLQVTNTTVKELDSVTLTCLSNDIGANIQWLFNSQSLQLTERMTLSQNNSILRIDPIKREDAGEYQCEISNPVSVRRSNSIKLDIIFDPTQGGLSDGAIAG
From the text: All of the recombinant human CEACAM-1/CD66a protein (R&D systems; Cat. No. 2244-CM, HCCM1), recombinant human CEACAM-5/CD66e protein (R&D systems; Cat. No. 4128-CM, HCCM5), recombinant human CEACAM-6/CD66c protein (R&D systems; Cat. No. 3934-CM, HCCM6), recombinant human CEACAM-3/CD66d protein (Sino Biological; Cat. No. 11933-H08H, HCCM3), recombinant mouse PD-1 Fc chimeric protein (R&D systems; Cat. No. 1021-PD, mPD-1-Fc), recombinant CEACAM1-Fc (IgG4) protein (Mogam, in-house production, HCCM1-Fc), recombinant human CEACAM-1/CD66a protein Bulk (R&D systems; Cat. No. 2244-CM, HCCM1 (bulk)) and mouse CEACAM1/CD66a protein (Sino Biological; Cat. No. 50571-M08H, mouse CCM1) (2.5 μg each) were dissolved in 10 ml of PBS, respectively and dispensed into a 96-well plate (Nunc; Cat. No. 467679) at 100 μl/well, which was incubated overnight at 4° C. Thereafter, each well was treated with 300 μl of 1% (v/v) bovine serum albumin, which was incubated at 37° C. for 1 hour.
The diluted antibodies were dispensed into each well coated with each protein at 100 μl/well, which was incubated at 37° C. for 1 hour. Then, each well was washed 3 times with a washing buffer prepared by diluting 10 μl of Tween 20 (Sigma-Aldrich; Cat. No. P9146) in 990 μl of PBS. Thereafter, 2 μl of HRP-conjugated human anti-IgG-Fab antibody (anti-human IgG Fab; Sigma; Cat. No. A0293) was diluted in 10 ml of PBS, added to the wells at 100 μl/well, and incubated for 1 hour.
as §3

T2 sequence (chain, as listed by the source limits assumed): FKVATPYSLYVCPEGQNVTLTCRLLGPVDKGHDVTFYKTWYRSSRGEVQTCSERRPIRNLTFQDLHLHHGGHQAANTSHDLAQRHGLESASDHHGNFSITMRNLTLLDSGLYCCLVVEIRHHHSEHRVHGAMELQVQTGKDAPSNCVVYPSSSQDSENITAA
T3 sequence (P02769 25-607 limits assumed): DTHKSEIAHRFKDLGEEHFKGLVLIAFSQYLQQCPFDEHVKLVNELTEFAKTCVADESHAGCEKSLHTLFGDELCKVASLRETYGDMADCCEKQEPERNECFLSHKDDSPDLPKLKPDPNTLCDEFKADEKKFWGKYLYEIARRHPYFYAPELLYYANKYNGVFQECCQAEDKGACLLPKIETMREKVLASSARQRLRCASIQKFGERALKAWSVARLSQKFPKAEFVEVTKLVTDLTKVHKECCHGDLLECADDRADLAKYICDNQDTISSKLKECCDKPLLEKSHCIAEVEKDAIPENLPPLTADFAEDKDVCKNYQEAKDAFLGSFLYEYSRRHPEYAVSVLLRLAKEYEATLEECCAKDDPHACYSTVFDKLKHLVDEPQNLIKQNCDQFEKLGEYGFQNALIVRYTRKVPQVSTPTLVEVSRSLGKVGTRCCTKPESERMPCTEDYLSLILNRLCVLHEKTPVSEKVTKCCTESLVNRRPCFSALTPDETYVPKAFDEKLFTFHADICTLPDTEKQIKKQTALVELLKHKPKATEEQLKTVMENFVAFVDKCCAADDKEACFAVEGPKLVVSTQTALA

Kd [1]: 25.7 nM
koff [1]: 0.000321 s⁻¹
kon [1]: 19000 M⁻¹ s⁻¹
B1: 4R9_H4-n20HC+4R26LC (antibody, human IgG4 S228P, lambda, V domains shown)
VH: EVQLLESGGGLVQPGGSLRLSCAASGFNFSNYAMSWVRQAPGKGLEWVSVISHGGGSIYYADSVKGRLTISRDNSKNTLYLQMNSLRAEDTAVYYCARDPTKGYAPTFDYWGQGTLVTVSS
VL: QSVLTQPPSASGTPGQRVTISCSGSSSNIGNNYVSWYQQLPGTAPKLLIYADSKRLSGVPDRFSGSKSGTSASLAISGLRSEDEADYYCGAWDGRLNGYVFGGGTKLTVLG

B2: C16 (antibody, human IgG4 S228P, lambda, V domains shown)
VH: EVQLLESGGGLVQPGGSLRLSCAASGFTFSNYSMSWVRQAPGKGLEWVSAISSDGGSKYYADSVKGRFTISRDNSKNTLYLQMNSLRAEDTAVYYCARDPRKHVDRYFDYWGQGTLVTVSS
VL: B1 VL with N31S, Y33T, S53N, K54N, L56P, A91T, G94Y, R95S, N97S, F101L
binding result (HVISTA): no binding (tested: 3 µg/ml (single concentration))
binding result (BSA): no binding (tested: 3 µg/ml (single concentration))
binding result (mCCM1): no binding (tested: 3 µg/ml (single concentration))
